Results on one molecule are retold here after patent US7326418B2, “Identification of novel factors that block programmed cell death or apoptosis by targeting JNK” (University of Chicago, priority 2001, dated 2008).

For experiment [1], the target named is T1, JNKK2 (Homo sapiens, UniProt O14733, Q133P/Q94H).
T1 construct: plasmids encoding full-length (FL) human ASK1, MEKK4, JNKK1, and JNKK2; made in house; host or cells: TNT coupled reticulocyte lysate (Promega), in vitro transcription/translation from pBS
T1 sequence (O14733 1-401 Q94H/Q133P limits assumed): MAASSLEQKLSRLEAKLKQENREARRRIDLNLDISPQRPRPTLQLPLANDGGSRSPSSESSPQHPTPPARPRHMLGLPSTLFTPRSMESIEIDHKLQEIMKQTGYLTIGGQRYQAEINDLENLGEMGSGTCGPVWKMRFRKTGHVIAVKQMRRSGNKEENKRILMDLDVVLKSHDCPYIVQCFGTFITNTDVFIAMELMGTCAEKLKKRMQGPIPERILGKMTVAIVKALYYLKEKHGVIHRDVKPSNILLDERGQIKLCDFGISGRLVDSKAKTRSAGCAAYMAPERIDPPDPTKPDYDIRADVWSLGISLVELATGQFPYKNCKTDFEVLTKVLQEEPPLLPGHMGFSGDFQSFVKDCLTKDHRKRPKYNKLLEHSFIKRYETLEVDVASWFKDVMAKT
The experiment is described as follows: GST pull-down, GST-Gadd45β beads with in vitro translated 35S-labeled JNKK2. The class given is binding. The procedure:
(§1) To confirm the above interactions, in vitro, GST pull-down experiments were performed. pBluescript (pBS) plasmids encoding full-length (FL) human ASK1, MEKK4, JNKK1, and JNKK2, or polypeptides derived from the amino- or carboxy-terminal portions of ASK1 (i.e. N-ASK1, spanning from amino acids 1 to 756, and C-ASK1, spanning from amino acids 648 to 1375) were transcribed and translated in vitro using the TNT coupled retyculocyte lysate system (Promega) in the presence of ^35S-methionine. 5 μl of each translation mix were incubated, in vitro, with sepharose-4B beads that had been coated with either purified glutathione-S-transferase (GST) polypeptides or GST-Gadd45β proteins. The latter proteins contained FL murine Gadd45β directly fused to GST. Binding assays were performed according to standard procedures, and ^35S-labeled proteins that bound to beads, as well as 2 μl of each in vitro translation mix (input), were then resolved by SDS polyacrylamide gel electrophoresis. Asterisks indicate the intact translated products. […] Thus, GST pull-down experiments confirmed the strong interaction between Gadd45β and JNKK2 observed in vivo, as well as the weaker interactions of Gadd45β with other kinases in the JNK pathway. These assays also uncovered a weak association between Gadd45β and JNKK1. […]

Experiment [2] has as its target T2, JNKK1 (Mus musculus, UniProt P47809).
T2 construct: plasmids encoding full-length (FL) human ASK1, MEKK4, JNKK1, and JNKK2; made in house; host or cells: TNT coupled reticulocyte lysate (Promega), in vitro transcription/translation from pBS
T2 sequence (P47809 2-397): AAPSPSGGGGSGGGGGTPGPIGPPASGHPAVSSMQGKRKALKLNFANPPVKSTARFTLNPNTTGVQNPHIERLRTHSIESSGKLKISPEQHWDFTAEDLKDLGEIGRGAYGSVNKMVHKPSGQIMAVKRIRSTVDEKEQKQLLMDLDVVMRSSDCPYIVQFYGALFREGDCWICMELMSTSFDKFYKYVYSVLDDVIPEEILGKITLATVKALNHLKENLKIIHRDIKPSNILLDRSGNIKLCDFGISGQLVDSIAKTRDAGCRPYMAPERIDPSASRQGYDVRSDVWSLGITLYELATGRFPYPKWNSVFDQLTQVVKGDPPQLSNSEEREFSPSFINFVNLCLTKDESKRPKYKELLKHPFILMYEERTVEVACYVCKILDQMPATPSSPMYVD
The experiment is described as follows: GST pull-down, GST-Gadd45β beads with in vitro translated 35S-labeled JNKK1. The class given is binding, murine. The procedure: as §1

B1: GST-Gadd45β: full-length murine Gadd45β directly fused to GST, purified from E. coli (protein)
chain: MTLEELVASDNAVQKMQAVTAAVEQLLVAAQRQDRLTVGVYEAAKLMNVDPDSVVLCLLAIDEEEEDDIALQIHFTLIQSFCCDNDIDIVRVSGMQRLAQLLGEPAETLGTTEARDLHCLLVTNCHTDSWKSQGLVEVASYCEESRGNNQWVPYISLEER
modifications: left off: a dimerising Fc or GST
notes: full-length murine Gadd45β directly fused to GST, purified from E. coli
For the molecule B1, the “association with FL-JNKK2” value in experiment [1] is given as “strongly associated”. In experiment [2], the “association with JNKK1” value was “weakly”.
